Measurements published in the nanobody polyreactivity screen of Harvey et al. (2022).

Test: yeast display, Sf9 membrane polyspecificity reagent, FACS + sequencing; frameworks hold sequencing errors
In short: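 Synthetic nanobody libraries on Saccharomyces cerevisiae BJ5465 were galactose-induced for 36–48 hours, stained 1 hour at 4 °C with 10% biotinylated, detergent-solubilized Sf9 membrane reagent and enriched on streptavidin microbeads. FACS then separated cells into low and high (top ~1%) gates by anti-HA (expression) and streptavidin (reagent binding) fluorescence. Genes were colony-PCR amplified, MiSeq 2 × 250 sequenced and CDR-length filtered. A clone's polyreactivity label is that of its gate of origin.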

| Sequence | polyreactivity (PSR sort gate) |
| --- | --- |
| QVQLVESGGGLVQAGGSLRLSCAASGSIFRHYTMGWYRQAPGIERELVAVISSGGNTNYADSVKGRFTISRDNAKNTVYLQMNSLKPEDTAVDDCAARSHRYYSRVNYWGQGTQVTVSS | high polyreactivity |
| QVQLVESGGGLVQAGRSLRLSCAAYGYTFEFYAMGWYRQAPGKEREFVAGINSSGVTTYYADSVKGRFTIARDNAKYTVYLQMNSLKPVYSAVYYCAATDVVYTWFFLVYIPYDYWGQGTQVTVSS | low polyreactivity |
| QVQLVESGGGLVKAGGSLRLSCAASGFTIVYYAMGWYIQAPGKERELVAAISATGGRTYYADSVKGRFTISRDNAKNTVYLQMNSLKPEDTAVYYCATRRRVLYGYDYWGQGTQVTVSS | high polyreactivity |
| QVQLVESGGGLVQAGGSLRLSCAASGSTFYGYAMGWYRQAPGKDRELVAAISSGGRTNYADSVKGRFTISRDNAKNTVYLQLHSLKPEDTAVYYCNARRIYGWWEFDYWGQGTQVTVSS | low polyreactivity |
| QVQHVESGGGLVQAGGSLRLSCAASGSTFTGYTMGWYRQAPGKERELVASIRTYYADSVKGRFTISRDNAKNTVYLQMNSLKPEDTAVYYCAADFPSATGGYDYWGQGTQVTVSS | low polyreactivity |
| QVQLVESGGGLVQAGGSLRLSCAASGYIFKRYAMGWYRQAPGKERELVAAISGNGGSTYYADSVKGRFTISRDNAKNTVYLQMNSLKPEDTAVYYCNKSGYYSPTSKGEYWGQGTQVTVSS | low polyreactivity |
| QDQLVESGGGLVQAGGSLRLSCAASGRTFTHYALGWYRQAPGKERELVAAISWSGGITYYADSVKGRFTISRDYAKNTVYLQMNSLKPEDTAVYYCAAEHYFSGYYYWGQGTQVTVSS | high polyreactivity |
| QVQLGESGGGLVQAGGSLRLSCAGSGRTFVRSARGWSSQAPGKARELVARITSRGTSTYYADSVKGRFTSSRDNAKNTDYLLMNSLNPEDNAVYYCNNVRTFRDNSRYDYWGQGTHVTVSS | low polyreactivity |
| QLQLVESGGGFVQAGGSLRLSCDASGSTFGNYTMGWYRQAPGKERELVAAISFSGGRTYYADSVKGRFTISRDNAKNTVYLQMNSLKPADTAVYYCAKRSYGYSAFIYNYWGQGTQVTVSS | high polyreactivity |
| QVQLVESGGGLVQAGGSLRLSCAASGSIFYYNAMGWYRQAPGKERELDANISWNGASTYYADSVKGRFTISRDNAKNSVYLQMLSLKPEDTAVYYCATAGKGDPPWLPSEVTDYYYWGQGTQVTVSL | low polyreactivity |
| QVQLLESGGGLVLAGGSLRLSCAASGFIIRPYAIGWYRQAPGKERELVAAITYSSGSTYYADSVKGRFTISRDNAKYTVYLEMNSLKPEDTAVYYCNAEFWYETLYEYDYWGQGTQLTVSS | high polyreactivity |
| QVQLVETGGGLVQAGGSLRLSCAPSGSIFEYNGMGWYRQAPGKERELVAAITTTGTTDYADSVKGRFTISRDNAKNTVYLQMNSLKPEDTAVYYCAADYTYYYKGEYDYWGQGTQVTVSS | low polyreactivity |
| QVQLVESGGGLVQAGGSLRLSCAASGFTFGWYDMGWYRQAPGKERELVASISWSGSSTYYADSVKGRFTISRDNAKNTVYLQMNSLKPEDTAVYYCATPYWRRYDYWGQGTQVTVSS | high polyreactivity |
| QVQLVESGGGVVQAGGSLRLSCAASGRINARYAMGWYRQAPGKERELVAAITSGGGTYYADSVKGRFTISRDNAKNTVYLQMNSLKPEDTAVYYCAARWLSRGYEYYYWGQGTQVTVSS | high polyreactivity |
| QVQLEESGGGLVQAGGSLRLSCAASGRIFRPNAMGWYRQAPGKERELVAAISSGGSTYYADSVKGRFTISRDNAKNTVYLQMNSLKPEDTAVYYCAARSRGYDIRYGYWGQGTQVTVSS | high polyreactivity |
| QVQLVESGGGLDQAGGSLRLSCAASGRIFTTYAMGWYRQAPGKERELVAAISRSGGSTYYADSVKGRFTISRDNAKNTVYLQMNSLKPEDTAVYYCAAVPTSNSFRSSFYYWGQGTQVTVSS | high polyreactivity |

| Sequence | polyreactivity (PSR sort gate) |
| --- | --- |
| QVQLVESGGGLVQAGGSLRLSCAASGFNIIPYDMGWYRQAPGKEMDLVATISRGGSTNYADSVKGRFTISRDNAKNTVYLQMNSLKPEDTAVYYCAAEYKVVFSQPYGEYDYWGQGTQVTVSS | low polyreactivity |
| QVQLVESGGGLVQAGGSLRLSCAASGSTFSTNAMGWYRQAPGKERELVAAISYSGGSTYYADSVKGRFTISRDNAKNTVYLQMISLKPEDTAVYYCAADGYYYNSGGRYYEFYYWGQGTQVTVSS | low polyreactivity |
| QVQLVESGGGLVQAGGSLRLSCAASGSIFQPYAMGWYRQAPGKEREFVAAISRSGGITYYADSVKGRFTISRDNAKNTVYLQMNSLKPEDTAVYYCATGRQVVRSYSEGDYWGQGTQVTVSS | low polyreactivity |
| QVQLVESGGGLVQAGGSLRLSCAASGSTLALNAIGWYRQAPGKEREFVADISWSGGDTYYADSVKGRFTISRDNAKNTVYLQMNILKPEDTAVYYCATDFSYQFQALEDDYWGQGTQVTVSS | low polyreactivity |
| QVHLVESGGGLVQAGGSLRISCSASGPSYTHYAMGWYRQAPGKERELVASICDGGGTHYADSVKGRFTISRDNAKNTVYLEMKSLKPEDTAVYYCATYRYPTRRYDYWGQGTQVPVSS | low polyreactivity |
| QVQLEESGGGLVQAGGSLRLSCAASGSTFSRYAMGWYRQAPGKERELVAAISSSGGGTYYADSVKGRFTISRDNAKNTVYLQMNSLKPEDTAVYYCAAKRVHGATGYWGQGTQVTVSS | high polyreactivity |
| QVQLVESGGGLVQAGGSLRLSCAASGYIFGINDMAWYIQAPGKERELVAAIRISGGSTYYADSVKGRFTISRDNAKNTVYLQMNSLKPEDTAVYYCNAQDDGGLEWRYEEDDYWGQGTQVTVSS | low polyreactivity |
| QVQLVESGGGLVQAGGSLRLSCAASGLIFSFYDMGWYRQAPGKEREFVAAISGSGGSTYYADSVKGRFTISRDNEKNTVYLHMNILKPEDTAVYYCAAEYFTFYWKLDYWGQGTQVTVSS | high polyreactivity |
| QVQLVESGGGLVQAGGSLRLSCAASGRIFARYTMGWYRQAPGKEREFVAGIRSSGGRTYYADSVKGRFTISRDNAKNTVYLQMNSLKPEDTAVYYCKAGGSWYFARYDYWGQGTLVTVSS | low polyreactivity |
| QVQLVESGGGVVQAGGSLRISCAASRLIFRRNAMGWYGQAPGKERELVAAISRTGGSTYDADSVKGRFTISRDNAKNPVYLQRNSLIPEDTAVYYCATDTRDYDYTDEYWGHGTQVTVSS | low polyreactivity |
| QVQLVESGGGLVQAGGSLRLSCAASGRIFYAYAKGWYRPAPGKEREVVAAITRGGSTYYADSVKGRFTISRDNAKNTVYLQLNCLKREDTAVYSWAAQGYAPPLGESLGYWGEGTQVTVSS | low polyreactivity |
| QVQLVESGGGLVQAGGSLRLSCAASGSTFYFYVLGWYRQAPGKERELVAAISWGGASTYYAVSVKGRFTISRDHAKNTVYLQLNSLKPEDTAVYNCTDRLRVRYDYWGQGTQVTVSS | low polyreactivity |
| QVQLVETGGGLVQAGGSLRLSCAASGRTMPYYAMGWYRQAPGKERELVATISSRGGSTYYADSVKGRFTISRDNAKNTVYLQMNSLKPEDTAVYYCAARGNTPRTRRYGYWGQGTQVTVSS | high polyreactivity |
| QVQLVESGGGLVQAGGSLRLSCAACGRIFSYNAMGWYRQAPGKERELVAAIRWRGGSTYYADSVKGRFTISRDNAKNTVYLQMNRLKPEDTAVYYCNALRYYHYDYWGQGTQVTVSS | high polyreactivity |
| QVQLVESGGGLVQAGGSLRLSCAASGRTFQYYAMGWYIQGPGKERELVAAISWSGGSTYYADSVKGRFTISRDNAKNTVYLQMNSLKPEDTAVYFCAAVVGRNRTRSYGYWGQGTQVTVSS | high polyreactivity |
| QVQLVESGGGLVQAGGSLRLSCAASVSIMARNAMVWYRQAPGKERELVAAISNSGSTNYADSVKGRFTISRDNAKNTVYLQMNSLKPEDTAVYYCAKDADHGWFEYDYWGQGTQVTVSS | low polyreactivity |
